Assays:
Assay in all cases: SPR
[1] = target: Malayan pangolin ACE2 ectodomain fused with mouse Fc (Malayan pangolin)
[2] = target: little brown bat ACE2 ectodomain fused with mouse Fc (little brown bat)
[3] = target: alpaca ACE2 ectodomain fused with mouse Fc (alpaca)

Substance | fold lower affinity than SARS-CoV-2 RBD to the same ACE2 [1] [fold] | fold lower affinity than SARS-CoV-2 RBD to the same ACE2 [2] [fold] | Kd [3] [µM]
SARS-CoV receptor binding domain (RBD), His-tagged (from UniProt P59594 306-527) (domain or fragment) | 4 | 40 | 
SARS-CoV-2 receptor binding domain (RBD), His-tagged (from UniProt P0DTC2 319-541) (domain or fragment) |  |  | 16.5
